Key:
Experiment in all cases: PamChip microarray peptide phosphorylation
FES^WT = target: T1, FES^WT (Homo sapiens, UniProt P07332); format: biochemical; details: peptide substrate phosphorylated by FES - WT
T1 construct: human FES cDNA encoding residues 448–822 or human FER cDNA encoding residues 448–820 was amplified by PCR; made in house; host or cells: E. coli BL21(DE3), co-expressing YopH phosphatase

ABL1 = ABL1 (Homo sapiens, UniProt P00519); details: peptide substrate phosphorylated by ABL1
ABL1, sequence (P00519 whole entry): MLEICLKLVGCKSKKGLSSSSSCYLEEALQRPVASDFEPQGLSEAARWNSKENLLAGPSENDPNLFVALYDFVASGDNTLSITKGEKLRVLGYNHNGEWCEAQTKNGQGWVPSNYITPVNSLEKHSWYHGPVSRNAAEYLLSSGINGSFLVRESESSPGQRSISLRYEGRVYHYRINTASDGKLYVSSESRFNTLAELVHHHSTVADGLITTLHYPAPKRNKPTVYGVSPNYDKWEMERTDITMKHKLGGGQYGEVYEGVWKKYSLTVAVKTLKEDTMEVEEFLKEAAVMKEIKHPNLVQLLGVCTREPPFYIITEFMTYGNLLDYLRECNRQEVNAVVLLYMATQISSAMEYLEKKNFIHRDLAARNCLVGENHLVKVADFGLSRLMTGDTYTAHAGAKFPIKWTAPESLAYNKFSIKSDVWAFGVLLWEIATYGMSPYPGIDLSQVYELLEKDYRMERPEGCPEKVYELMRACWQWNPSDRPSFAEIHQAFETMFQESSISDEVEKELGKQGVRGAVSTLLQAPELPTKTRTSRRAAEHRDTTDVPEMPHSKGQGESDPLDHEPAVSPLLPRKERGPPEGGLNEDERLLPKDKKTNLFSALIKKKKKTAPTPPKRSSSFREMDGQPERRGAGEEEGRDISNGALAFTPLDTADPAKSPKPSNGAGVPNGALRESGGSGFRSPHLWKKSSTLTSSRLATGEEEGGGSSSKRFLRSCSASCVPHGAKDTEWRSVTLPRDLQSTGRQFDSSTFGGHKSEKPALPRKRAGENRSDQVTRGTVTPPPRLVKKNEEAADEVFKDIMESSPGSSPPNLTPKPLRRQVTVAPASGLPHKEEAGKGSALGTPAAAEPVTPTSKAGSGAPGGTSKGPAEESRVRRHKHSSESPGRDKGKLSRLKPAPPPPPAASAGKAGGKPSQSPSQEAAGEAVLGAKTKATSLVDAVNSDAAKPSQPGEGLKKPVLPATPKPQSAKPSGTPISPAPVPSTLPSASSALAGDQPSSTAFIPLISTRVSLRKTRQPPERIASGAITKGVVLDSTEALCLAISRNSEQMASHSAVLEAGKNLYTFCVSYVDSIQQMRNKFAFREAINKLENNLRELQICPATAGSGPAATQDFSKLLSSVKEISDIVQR

CSK = CSK (Homo sapiens, UniProt P41240); details: peptide substrate phosphorylated by CSK
CSK, sequence (P41240 whole entry): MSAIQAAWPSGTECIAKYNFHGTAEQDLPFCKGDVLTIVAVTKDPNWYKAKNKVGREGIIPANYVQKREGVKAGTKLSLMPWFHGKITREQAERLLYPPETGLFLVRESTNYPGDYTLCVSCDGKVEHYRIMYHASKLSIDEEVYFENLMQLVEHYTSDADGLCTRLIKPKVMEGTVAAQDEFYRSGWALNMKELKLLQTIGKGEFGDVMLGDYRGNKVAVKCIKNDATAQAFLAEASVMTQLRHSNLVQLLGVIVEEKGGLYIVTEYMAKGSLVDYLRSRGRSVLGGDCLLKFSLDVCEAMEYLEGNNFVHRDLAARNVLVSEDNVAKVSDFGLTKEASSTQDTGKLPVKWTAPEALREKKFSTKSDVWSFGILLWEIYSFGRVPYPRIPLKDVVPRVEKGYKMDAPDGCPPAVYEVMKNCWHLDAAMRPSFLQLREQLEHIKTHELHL

FGR = FGR (Homo sapiens, UniProt P09769); details: peptide substrate phosphorylated by FGR
LYN = LYN (Homo sapiens, UniProt P07948); details: peptide substrate phosphorylated by LYN
LYN, sequence (P07948 whole entry): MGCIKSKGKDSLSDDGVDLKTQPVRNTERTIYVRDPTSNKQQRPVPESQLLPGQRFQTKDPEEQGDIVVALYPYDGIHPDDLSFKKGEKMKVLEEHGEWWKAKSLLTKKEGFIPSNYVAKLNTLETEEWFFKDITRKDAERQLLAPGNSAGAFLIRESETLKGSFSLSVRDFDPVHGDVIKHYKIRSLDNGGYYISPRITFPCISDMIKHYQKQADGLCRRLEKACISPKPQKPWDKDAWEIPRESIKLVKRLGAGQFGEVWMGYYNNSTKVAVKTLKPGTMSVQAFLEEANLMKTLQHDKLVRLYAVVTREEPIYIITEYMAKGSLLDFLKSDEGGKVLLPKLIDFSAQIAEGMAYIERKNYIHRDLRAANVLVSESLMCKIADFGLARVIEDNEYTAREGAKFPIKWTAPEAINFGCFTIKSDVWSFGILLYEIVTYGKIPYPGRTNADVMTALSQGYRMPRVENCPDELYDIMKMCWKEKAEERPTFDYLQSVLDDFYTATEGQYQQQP

SYK = SYK (Homo sapiens, UniProt P43405); details: peptide substrate phosphorylated by SYK

T1 sequence (P07332 448-822): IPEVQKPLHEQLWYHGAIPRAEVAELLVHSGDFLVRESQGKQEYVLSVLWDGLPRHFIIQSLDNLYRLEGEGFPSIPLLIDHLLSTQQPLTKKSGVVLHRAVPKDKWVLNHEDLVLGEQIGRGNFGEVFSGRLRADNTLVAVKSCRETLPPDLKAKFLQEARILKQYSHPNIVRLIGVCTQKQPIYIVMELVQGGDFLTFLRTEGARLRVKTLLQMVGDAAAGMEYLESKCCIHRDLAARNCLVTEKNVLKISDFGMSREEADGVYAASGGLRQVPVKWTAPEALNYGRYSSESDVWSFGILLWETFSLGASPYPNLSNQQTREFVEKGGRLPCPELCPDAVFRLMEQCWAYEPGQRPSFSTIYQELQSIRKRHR

Substance | Relative phosphorylation (% of highest signal) (FES^WT) | Relative phosphorylation (% of highest signal) (ABL1) | Relative phosphorylation (% of highest signal) (CSK) | Relative phosphorylation (% of highest signal) (FGR) | Relative phosphorylation (% of highest signal) (LYN) | Relative phosphorylation (% of highest signal) (SYK)
MBP_259_271 (FGYGGRASDYKSA; UniProt P02686 259-271, looked up, fragment) | -0.152 % of highest signal | -0.0479 % of highest signal | -0.0622 % of highest signal | 0.634 % of highest signal | -0.152 % of highest signal | 0.9 % of highest signal
ZAP70_485_497 (ALGADDSYYTARS; UniProt P43403 485-497, looked up, fragment) | 3.5 % of highest signal | -0.0741 % of highest signal | 0.277 % of highest signal | 7.8 % of highest signal | 1.0 % of highest signal | 10.4 % of highest signal
NPT2A_501_513 (AKALGKRTAKYRW; UniProt Q06495 501-513, looked up, fragment) | 0.553 % of highest signal | -0.2 % of highest signal | -0.4 % of highest signal | -2.1 % of highest signal | -0.318 % of highest signal | -0.846 % of highest signal
VGFR1_1235_1247 (ATSMFDDYQGDSS; UniProt P17948 1235-1247, looked up, fragment) | -0.11 % of highest signal | -0.543 % of highest signal | -0.5 % of highest signal | 0.9 % of highest signal | -0.0433 % of highest signal | 17.6 % of highest signal
MK01_198_210 (IMLNSKGYTKSID; UniProt P28482 198-210, looked up, fragment) | -0.6 % of highest signal | -0.5 % of highest signal | -0.8 % of highest signal | -3.8 % of highest signal | -0.184 % of highest signal | -1.2 % of highest signal
VGFR1_1162_1174 (VQQDGKDYIPINA; UniProt P17948 1162-1174, looked up, fragment) | 2.3 % of highest signal | -0.426 % of highest signal | -0.737 % of highest signal | -3.4 % of highest signal | -0.153 % of highest signal | 1.8 % of highest signal
STA5A_687_699 (LAKAVDGYVKPQI; UniProt P42229 687-699, looked up, fragment) | -0.46 % of highest signal | -0.439 % of highest signal | -1.3 % of highest signal | -3.6 % of highest signal | -0.4 % of highest signal | -1.9 % of highest signal
VGFR1_1046_1058_Y1048F (DIFKNPDYVRKGD; UniProt P17948 1046-1058, looked up, variant Y1048F) | -0.452 % of highest signal | -0.449 % of highest signal | -0.9 % of highest signal | -2.7 % of highest signal | -0.0478 % of highest signal | 1.1 % of highest signal
ODBA_340_352_D340K (KDSSAYRSVDEVN; UniProt P12694 340-352, looked up, variant D340K) | -0.457 % of highest signal | 5.2 % of highest signal | 10.4 % of highest signal | -0.358 % of highest signal | 0.112 % of highest signal | 1.5 % of highest signal
EPHA4_921_933 (QAIKMDRYKDNFT; UniProt P54764 921-933, looked up, fragment) | -0.348 % of highest signal | -0.327 % of highest signal | -0.535 % of highest signal | -1.7 % of highest signal | -0.126 % of highest signal | -0.4 % of highest signal
VINC_815_827 (KSFLDSGYRILGA; UniProt P18206 815-827, looked up, fragment) | 0.223 % of highest signal | 1.1 % of highest signal | -0.442 % of highest signal | -2.6 % of highest signal | -0.3 % of highest signal | -1.0 % of highest signal
ART_004_EAIYAAPFAKKKXC | 5.0 % of highest signal | 100.0 % of highest signal | 17.0 % of highest signal | 8.3 % of highest signal | 2.6 % of highest signal | 3.2 % of highest signal
NTRK2_509_521 (PVIENPQYFGITN; UniProt Q16620 509-521, looked up, fragment) | -0.566 % of highest signal | -0.0217 % of highest signal | -0.422 % of highest signal | -1.0 % of highest signal | 0.113 % of highest signal | 0.0821 % of highest signal
VGFR2_1046_1058 (DFGLARDIYKDPD; UniProt P35968 1046-1058, looked up, fragment) | 1.1 % of highest signal | -0.11 % of highest signal | 2.2 % of highest signal | 1.2 % of highest signal | 0.243 % of highest signal | 0.6 % of highest signal
EPHA2_581_593 (QLKPLKTYVDPHT; UniProt P29317 581-593, looked up, fragment) | -0.0404 % of highest signal | -0.273 % of highest signal | -0.569 % of highest signal | -3.2 % of highest signal | -0.186 % of highest signal | -1.0 % of highest signal
VGFR1_1049_1061 (KNPDYVRKGDTRL; UniProt P17948 1049-1061, looked up, fragment) | -0.333 % of highest signal | -0.36 % of highest signal | -0.8 % of highest signal | -2.4 % of highest signal | -0.274 % of highest signal | -0.167 % of highest signal
VGFR3_1061_1073 (DIYKDPDYVRKGS; UniProt P35916 1061-1073, looked up, fragment) | -0.0595 % of highest signal | 2.9 % of highest signal | 0.341 % of highest signal | 0.468 % of highest signal | 0.0483 % of highest signal | 2.4 % of highest signal
STAT6_634_646 (MGKDGRGYVPATI; UniProt P42226 634-646, looked up, fragment) | -0.355 % of highest signal | -0.6 % of highest signal | -1.1 % of highest signal | -4.7 % of highest signal | -0.3 % of highest signal | -2.2 % of highest signal
EFS_246_258_Y253F (GGTDEGIFDVPLL; UniProt O43281 246-258, looked up, fragment Y253F) | -0.634 % of highest signal | -0.5 % of highest signal | -0.6 % of highest signal | -4.8 % of highest signal | -0.264 % of highest signal | -1.2 % of highest signal
